{"source": "patent US20240189392A1", "about": "(AMBRX, published 2024)", "binders": {"B1": {"name": "RLX-A-AQ1-20KPEG (ligand)", "chain 1": "XLYSALANKCCHVGCTKRSLARFC", "chain 2": "ASWMEEVIKLCGRELVRAQIAICGMSTWS", "modifications": "pACF (para-acetylphenylalanine) at position 1 of the A chain, linked to a 20 kDA PEG via an oxime linkage"}}, "experiment_in_all_cases": "cell-based or functional assay", "key": {"human RXFP1 [1]": {"target": "T1, human RXFP1 (human, UniProt Q9HBX9 1-757)", "T1 sequence (looked up)": "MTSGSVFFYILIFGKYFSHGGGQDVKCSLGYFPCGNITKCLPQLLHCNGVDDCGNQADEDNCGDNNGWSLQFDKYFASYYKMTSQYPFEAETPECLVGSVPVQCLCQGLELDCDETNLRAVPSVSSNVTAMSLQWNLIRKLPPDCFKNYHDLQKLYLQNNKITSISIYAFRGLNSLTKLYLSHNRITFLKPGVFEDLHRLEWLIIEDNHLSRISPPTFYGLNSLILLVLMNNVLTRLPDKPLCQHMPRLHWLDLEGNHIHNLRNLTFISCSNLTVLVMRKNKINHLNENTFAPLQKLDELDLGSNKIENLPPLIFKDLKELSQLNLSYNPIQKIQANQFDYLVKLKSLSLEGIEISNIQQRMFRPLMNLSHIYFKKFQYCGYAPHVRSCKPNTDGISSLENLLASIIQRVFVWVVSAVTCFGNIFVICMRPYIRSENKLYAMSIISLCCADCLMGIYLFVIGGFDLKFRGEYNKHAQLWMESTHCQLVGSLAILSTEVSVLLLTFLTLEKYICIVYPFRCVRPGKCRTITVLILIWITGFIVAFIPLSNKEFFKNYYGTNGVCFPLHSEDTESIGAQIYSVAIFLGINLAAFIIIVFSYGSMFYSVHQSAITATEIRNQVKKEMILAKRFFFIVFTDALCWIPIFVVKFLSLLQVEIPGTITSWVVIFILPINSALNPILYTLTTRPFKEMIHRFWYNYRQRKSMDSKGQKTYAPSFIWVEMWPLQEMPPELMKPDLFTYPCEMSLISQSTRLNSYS"}, "human RXFP1 [2]": {"target": "T1, human RXFP1", "remark": "listed apart in the source"}, "human RXFP3": {"target": "T2, human RXFP3 (human, UniProt Q9NSD7 1-469)", "T2 sequence (looked up)": "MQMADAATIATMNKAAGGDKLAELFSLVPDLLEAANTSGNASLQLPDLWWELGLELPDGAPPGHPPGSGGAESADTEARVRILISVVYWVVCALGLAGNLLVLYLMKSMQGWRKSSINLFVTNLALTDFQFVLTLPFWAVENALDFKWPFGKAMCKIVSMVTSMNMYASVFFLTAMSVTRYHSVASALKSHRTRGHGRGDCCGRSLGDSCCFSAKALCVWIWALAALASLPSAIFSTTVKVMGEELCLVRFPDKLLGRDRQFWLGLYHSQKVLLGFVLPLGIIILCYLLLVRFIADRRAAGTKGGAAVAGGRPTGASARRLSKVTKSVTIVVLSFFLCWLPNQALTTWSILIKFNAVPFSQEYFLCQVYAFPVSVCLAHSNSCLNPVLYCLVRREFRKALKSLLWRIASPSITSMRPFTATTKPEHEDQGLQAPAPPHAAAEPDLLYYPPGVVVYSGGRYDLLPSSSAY"}, "human RXFP4": {"target": "human RXFP4 (human, UniProt Q8TDU9 1-374)", "sequence (Q8TDU9 whole entry)": "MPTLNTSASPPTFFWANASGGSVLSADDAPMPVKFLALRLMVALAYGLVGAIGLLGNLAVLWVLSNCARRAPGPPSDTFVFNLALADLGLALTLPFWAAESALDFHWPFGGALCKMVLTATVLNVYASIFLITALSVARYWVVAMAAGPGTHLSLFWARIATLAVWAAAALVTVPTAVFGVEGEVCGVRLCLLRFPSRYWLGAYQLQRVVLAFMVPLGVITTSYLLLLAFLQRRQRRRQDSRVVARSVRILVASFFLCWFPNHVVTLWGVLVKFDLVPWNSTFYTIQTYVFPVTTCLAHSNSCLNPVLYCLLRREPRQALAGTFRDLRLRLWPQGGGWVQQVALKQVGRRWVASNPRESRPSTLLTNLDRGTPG"}, "cynomolgus monkey RXFP1": {"target": "T3, cynomolgus monkey RXFP1 (cynomolgus monkey, UniProt H9ERA2 1-757 (rhesus entry))", "T3 sequence": "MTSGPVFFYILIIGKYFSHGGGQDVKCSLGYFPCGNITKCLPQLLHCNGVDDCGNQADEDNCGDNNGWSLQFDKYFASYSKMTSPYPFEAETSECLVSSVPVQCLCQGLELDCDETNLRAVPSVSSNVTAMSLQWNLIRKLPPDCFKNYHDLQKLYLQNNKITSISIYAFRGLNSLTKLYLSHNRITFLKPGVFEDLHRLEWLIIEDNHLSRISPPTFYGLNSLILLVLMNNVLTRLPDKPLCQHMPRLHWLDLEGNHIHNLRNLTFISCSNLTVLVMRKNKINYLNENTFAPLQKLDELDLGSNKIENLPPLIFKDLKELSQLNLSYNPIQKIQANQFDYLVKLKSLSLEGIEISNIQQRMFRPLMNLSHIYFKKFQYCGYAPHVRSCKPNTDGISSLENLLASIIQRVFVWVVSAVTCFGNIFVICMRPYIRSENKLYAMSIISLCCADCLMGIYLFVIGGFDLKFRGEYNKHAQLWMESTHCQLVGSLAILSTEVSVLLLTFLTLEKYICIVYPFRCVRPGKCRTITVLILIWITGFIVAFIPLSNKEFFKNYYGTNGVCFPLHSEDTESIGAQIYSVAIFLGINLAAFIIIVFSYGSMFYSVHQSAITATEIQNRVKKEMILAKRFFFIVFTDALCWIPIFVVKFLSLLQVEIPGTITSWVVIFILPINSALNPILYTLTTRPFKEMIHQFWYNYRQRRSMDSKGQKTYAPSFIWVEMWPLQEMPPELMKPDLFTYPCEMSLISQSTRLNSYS"}}, "data": [{"binder": "B1", "values": [{"measurement": "In vitro Activity Fold Loss", "setting": "human RXFP1 [1]", "result": 12, "unit": "fold"}, {"measurement": "Potency Ratio (RLX-A-AQ1-20KPEG/WT-RLX), cAMP assay, THP-1 cells", "setting": "human RXFP1 [2]", "result": 26, "unit": "fold"}, {"measurement": "Potency Ratio (RLX-A-AQ1-20KPEG/WT-RLX), cAMP assay, hRXFP1/CHO-K1 cells", "setting": "human RXFP1 [2]", "result": 32, "unit": "fold"}, {"measurement": "RLX-A-AQ1-20KPEG Potency Ratio (hRXFP 1-1.0), cAMP assay", "setting": "human RXFP1 [2]", "result": 1, "unit": "ratio"}, {"measurement": "cAMP Assay EC50 (nM), THP-1 cells", "setting": "human RXFP1 [2]", "result": 7.6, "unit": "nM"}, {"measurement": "cAMP Assay EC50 (nM), hRXFP1/CHO-K1 cells", "setting": "human RXFP1 [2]", "result": 3.2, "unit": "nM"}, {"measurement": "cAMP Assay EC50 (nM), inhibition of forskolin-induced cAMP, human RXFP3/CHO-K1 cells", "setting": "human RXFP3", "result": "> 3000", "unit": "nM"}, {"measurement": "cAMP Assay EC50 (nM), inhibition of forskolin-induced cAMP, human RXFP4/CHO-K1 cells", "setting": "human RXFP4", "result": "> 3000", "unit": "nM"}, {"measurement": "Potency Ratio (RLX-A-AQ1-20KPEG/WT-RLX), cAMP assay, cyno RXFP1/CHO-K1 cells", "setting": "cynomolgus monkey RXFP1", "result": 33, "unit": "fold"}, {"measurement": "RLX-A-AQ1-20KPEG Potency Ratio (hRXFP 1-1.0), cAMP assay", "setting": "cynomolgus monkey RXFP1", "result": 1.6, "unit": "ratio"}, {"measurement": "cAMP Assay EC50 (nM), cyno RXFP1/CHO-K1 cells", "setting": "cynomolgus monkey RXFP1", "result": 1.97, "unit": "nM"}]}]}
